The target of data set [1] is T1, DapF (diaminopimelate epimerase), wild type, N-terminal 6×His tag (Escherichia coli, UniProt P0A6K1 1-274).
T1 sequence (looked up): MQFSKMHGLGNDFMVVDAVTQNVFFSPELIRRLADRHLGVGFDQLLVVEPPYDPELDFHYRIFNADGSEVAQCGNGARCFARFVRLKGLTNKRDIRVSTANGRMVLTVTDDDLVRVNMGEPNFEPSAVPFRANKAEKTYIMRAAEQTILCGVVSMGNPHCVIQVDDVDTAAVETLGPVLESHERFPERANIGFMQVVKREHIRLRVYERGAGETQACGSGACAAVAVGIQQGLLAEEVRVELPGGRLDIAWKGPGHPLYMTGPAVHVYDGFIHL
The experiment in a line: AUC.

In data set [2] the target is T2, DapF (Y268A), N-terminal 6×His tag (Escherichia coli, UniProt P0A6K1 1-274, Y268A).
T2 sequence (looked up): T1 sequence (looked up) with Y268A
Kind of data set: AUC.

The target in data set [3] is T3, DapF (T20A), N-terminal 6×His tag (Escherichia coli, UniProt P0A6K1 1-274, T20A).
T3 sequence (looked up): T1 sequence (looked up) with T20A
The experiment in a line: ITC. A general note: In ITC the heat of successive injections is recorded.

Data set [4] addresses T4, DapF (N22A), N-terminal 6×His tag (Escherichia coli, UniProt P0A6K1 1-274, N22A).
T4 sequence (looked up): T1 sequence (looked up) with N22A
Kind of data set: ITC.

The target in data set [5] is T1, DapF (diaminopimelate epimerase), wild …. Kind of data set: ITC.
Data set [6] deals with T5, DapF (L89A), N-terminal 6×His tag (Escherichia coli, UniProt P0A6K1 1-274, L89A).
T5 sequence (looked up): T1 sequence (looked up) with L89A
The experiment in a line: ITC.

Data set [7] has as its target T6, RppH;DapF (Escherichia coli DH5alpha;Escherichia …, UniProt P0A776;P0A6K1 1-176;1-274, |).
T6 sequence 1: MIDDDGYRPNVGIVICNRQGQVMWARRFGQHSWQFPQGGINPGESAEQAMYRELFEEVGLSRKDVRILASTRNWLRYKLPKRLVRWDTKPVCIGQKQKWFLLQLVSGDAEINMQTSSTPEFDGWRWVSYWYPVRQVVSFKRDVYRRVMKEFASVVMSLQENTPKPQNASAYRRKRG
T6 sequence 2: T1 sequence (looked up)
The experiment in a line: ITC.

Data set [8] addresses T7, RppH (Escherichia coli DH5alpha, UniProt P0A776 1-176).
T7 sequence: T6 sequence 1
The experiment in a line: ITC.

Data set [9] concerns the target T8, DapF (Escherichia coli DH5alpha, UniProt P0A6K1 1-274).
T8 sequence: T1 sequence (looked up)
The experiment in a line: ITC.

Substitutions are numbered along the chain they refer to. In names and notes the source's numbering stands.

By stoichiometry N is commonly meant a count of units in the complex or per binding partner. One may read the Kd as the free concentration of one partner at which half of the binding sites on the other are occupied at equilibrium, for simple one-to-one binding. A low value points to higher affinity.

B1: RppH (RNA pyrophosphohydrolase), wild type, GST tag removed (enzyme, Escherichia coli, UniProt P0A776 1-176, looked up)
chain: T6 sequence 1
For B1, the “stoichiometry N” value in data set [1] was 1 RppH per DapF (2:2 heterotetramer); in data set [2] it was 1 RppH per DapF (1:1 heterodimer); in data set [3], 0.97; in data set [4], 0.96; in [5], 0.95; in [6], 1.06. In addition, the Kd in data set [3] came out at 4.2 ± 1.8 nM; in data set [4], 0.3 ± 0.1 nM; in data set [5], 0.8 ± 0.4 nM; in data set [6], 5.2 ± 0.9 nM. For the same molecule, the dH was -14.4 ± 0.2 kcal⋅mol^-1 in [3], -16.4 ± 0.1 kcal⋅mol^-1 in data set [4], -13 ± 0.1 kcal⋅mol^-1 in [5] and -10.4 ± 0.1 kcal⋅mol^-1 in data set [6].

B2: RppH (D142A), GST tag removed (enzyme, Escherichia coli, UniProt P0A776 1-176, looked up)
chain: T6 sequence 1 with D142A
As for B2, in data set [5], the Kd was found to be 4.8 ± 1.8 nM, the dH was -11 ± 0.2 kcal⋅mol^-1 and the “stoichiometry N” value amounted to 1.05.

B3: RppH (S128A), GST tag removed (enzyme, Escherichia coli, UniProt P0A776 1-176, looked up)
chain: T6 sequence 1 with S128A
For the molecule B3, in data set [5], the Kd was found to be 12.8 ± 6 nM, the dH is -12.5 ± 0.3 kcal⋅mol^-1 and the “stoichiometry N” value came to 0.85.

B4: RppH (R145A), GST tag removed (enzyme, Escherichia coli, UniProt P0A776 1-176, looked up)
chain: T6 sequence 1 with R145A
Regarding B4, in data set [5], the Kd was determined as 2.3 ± 1 nM, the dH is -14.6 ± 0.1 kcal⋅mol^-1 and the “stoichiometry N” value worked out at 1.01.

For the molecule AGAACAAC (ssRNA, 5'-triphosphate) [8 nt RNA pppAGAACAAC], in [7], the Kd was roughly 120000 nM. Also, the results for the binding result in data set [8] and in [9] were “binds” and “no binding”, respectively.

The record behind these values is PMC6061791 (Nucleic Acids Research, 2018).
